The chains are these.
B1: hCDIFA-1 (antibody, V domains shown)
VH: QLQLQESGPGLVKPSETLSLICTVSGGSFSSSDFYWGWIRQPPGKGLEWIGNFYYNGSTSYNPSLKSRVTISVDTSKNQFSLKLRSVTAADTAVYYCARDYNFWNNSPNWFDPWGQGTLVTVSS
VL: EIVMTQSPATLSVSPGERATLSCRASQSISSNLAWYQQKLGQAPRLLIHGASTRATGIPARFSGSGSGTQFTLTISSLQSEDFAVYFCQQYNNWPPTFGGGTKVDIKR
B2: hCDIFA-53 (antibody, V domains shown)
VH: QVQLQQSGPGLVKPSETLSLTCTLSGGSISSDNYYWGWVRQPPGKGLEWIGSIYYSGSTYYNPSLKSRVFISVDMSKNQFSLKLSSVTAADTAVYYCARHTQGLGILRYFDWWTRPFDYWGQGTLVTVSS
VL: QSALTQPASVSGSPGQSITISCTGTSSDVGSYNLVSWYQQHPGKAPKLMIYEGSKRPSGVSNRFSGSKSGNTASLTISGLQAEDEADYYCCSYAGSSTLFGGGTKLTVLG
B3: hCDIFA-47 (antibody, V domains shown)
VH: QVQLQESGAEVKKPGSSVKVSCQASGGTFSNYAFNWVRQAPGQGLEWMGRTIPIVGLVNYAQNFQGRITFSADKSTSTAYMEVNSLRSDDTAVYYCARAEYPLNCTRGNCDVGTSYHYYYGMGVWGRGTTVTVSS
VL: EIVMTQSPATLSVSPGERATLSCRASQSISSNLAWFQQKPGQAPRLLIHGASTRATGIPVRFSGSGSGTEFTLTISSLQFGDSAVYYCQQYYNWRYTFGQGTKLEIKR
B4: hCDIFA-6 (antibody, V domains shown)
VH: QVQLQESGPGLVKPSQTLSLTCSVSGDSSSSGDYYWNWIRQPAGKGLEWIGYIYTSGSTNYNPSLKSRVTISEDTSKKQFSLKLTSVTAADTAVYYCARGIVGVGLDYWGQGTLVTVSS
VL: EIVMTQSPSTLSASVGDRVTITCRASQTISSWLAWYQQKPGRAPKLLMSKTSTLQPGVPSRFSGSGSGTEFTLTISGLQPDDVATYYCHHYNSWPFGPGTKVEIKR
B5: hCDIFA-54 (antibody, V domains shown)
VH: QVQLVESGAEVKKPGASVKVSCKASGYTFTSYDINWVRQATGQGLEWMGWMNPNSGNTGYAQKFQGRVTMTRNTSISTAYMELSSLRSEDTAVYYCARGGPNSGSFSHWFDPWGQGTLVTVSS
VL: QAVVTQPPSASASLGASVTLTCTLSSGYSNYKVDWYQQRPGKGPRFVMRVGTGGIVGSKGDGIPDRFSVLGSGLNRYLTIKNIQEDDESDYHCGADHGSGSNFAVVFGGGTKLTVLG
B6: hCDIFA-5 (antibody, V domains shown)
VH: EVQLVESGPGLVKPSETLSLTCAVSGGSISGYYWSWIRQPPGKGLEWIAYIYDSGSTSHNPSLKSRVTTSVDTSKNQFSLKLNSVTAADTAVYYCARSGKWALGAFDMWGQGTMVTVSS
VL: QSALTQPPSVSGAPGQRVTISCTGSSSNIGAGYDVHWYQQLPGTAPKLLISGNNNRPSGVPDRFSGSKSGTSASLAITGLQAEDEADYYCQSYDNDLSGLVVFGGGTKLTVLG
B7: hCDIFA-41 (antibody, V domains shown)
VH: QVQLQESGPGLVKPSQTLSLTCTVSGDSISSNQYYWTWIRQPAGKGLEWIGQIESAYFTNYNPSLKGRVTISGDASKNVLSLTLTSVTAADTALYWCAREAGGGLGYCTGGRCQFSGYYYYGLDVWGQGTTVTVSS
VL: QSALTQPPSVSAAPGQTVTISCSGSHSNIGNNYVSWYQQLPGTAPRRLIYDTDKRPSGIPDRFSGSKSGTSATLVITGLRAGDEADYYCGTWDGSLSAGVFGGGTKLTVLG
B8: hCDIFA-50 (antibody, V domains shown)
VH: QVQLVQSGTEVKKPGASVKVSCKASGYTFTNYGISWVRQAPGQGLEWMGWISGNNGHTNYAQNLQGRVTMTTDTSTSTAYMELRSLRSDDTAVYYCARVTRWFGELLGDYWGQGTLVTVSS
VL: QTVVTQEPSLTVSPGGTVTLTCASSTGAVTSGFLPNWFQQKPGQAPRALIYNTNNKHSWTPARFSGSLLGGKAALTLSGVQPEDEAEYYCLLYFDDAQVQVFGGGTKLTVLG
B9: hCDIFA-43 (antibody, V domains shown)
VH: QVQLVQSGPVLVKPTETLMLTCTVSGFSLSSAGMGVSWIRQPPGKAPEWLAHIFLSDEKSYRTSLESRLTISKDTSKSQVVLIMTNVDPADTATYYCARALKRYCTGGVCFLNWFDSWGPGTVVTVSS
VL: DIVMTQSPGTLSLSPGERATLSCRASLSIGNLYLAWYKQRPGHPPRLLIYGASSRATGTPDRFSGSGSGTDFTLTISRLEPEDFVVYYCQQYKTSPWTFGQGTKVEIKR
B10: hCDIFA-59 (antibody, V domains shown)
VH: QVQLVESGGGLVQPGRSLRLSCRTSGFTFGDFALSWVRQAPGKGLEWVGYIRSKTFGGTTEYAASVKGRFTMSRDDSKSIAYLQMNSLKTEDTAVYFCTRASYGAFDYWGQGTLVTVSS
VL: DIVMTQSPSSLSASVGDTVTITCRAGQNIATYLHWYQQKPGKAPNLLIYDARTLQSGVPSRFSGSGSGTDFTLTINSLQPEDFATYYCQQSYNTPWTFGQGTKVEIKR
B11: hCDIFA-49 (antibody, V domains shown)
VH: QVQLQESGPRLLEPSETLSLSCTVSGGSITSYYWGWIRQSPGKGLQWIGHIDSSGNTNYNYNSSLMNRVTISVVTSKNQFSLKLTSVTPADSAVYYCARVYLFYFGQSKWEYFDSWGQGTLVTVSS
VL: QSALTQPPSVSGAPGQRVTISCTGSDSNIGTDYDVHWYKQVPGAAPKLLIYGINNRPSGVPDRFSGSKSGTSASLAITGLQAEDEGDYYCQSYDIRPSGSVVFGGGTKLTVLG
B12: hCDIFA-4 (antibody, V domains shown)
VH: QVQLQESGPGLVKPSGTLSLTCAVSGGSISSINWWSWVRQPPGKGLEWIGEIYHSGSTNYNPSLKSRVTISVDKSKNQFSLKLSSVTAADTAVYYCAREGKVDSSSQGNWFDPWGQGTLVTVSS
VL: QPVLTQPRSVSGSPGQSVTISCTGTSSDVGGYNYVSWYQQHPGKAPKFMIYDVSKRPSGVPDRFSGSKSGNTASLTISGLQAEDEADYYCCSYAGTYTFYVFGTGTKVTVLG
B13: hCDIFA-55 (antibody, V domains shown)
VH: EVQLLESGAEVKKPGASVKVSCKASAYTFTTYGINWVRQAPGQGLEWMGWVSFSNGNTEYAQKFQGRVTMTTDTSTSTAFMELRSLRSDDTAVYYCASEKGELLSGCFDPWGQGTLVTVSS
VL: QSVLTQPPSVSAAPGQKVTISCSGSSSNIGNSLVSWYQHLPGTAPKLLISDNNERPSGIPDRFSGSKSGTSATLGITGLQTGDEADYYCGTWDSSLSVVVFGGGTKLTVLG
B14: hCDIFA-51 (antibody, V domains shown)
VH: EVQLLESGGGVVQPGRSLRLSCAASGFTFSNYGMHWVRQAPGKGLEWVAVIWYDGSNKYYADSVKGRFTISRDNSKNMVYLQMNSLRGADTAVYYCAGDRHLGLWGYYYYYYAMDVWGQGTTVTVSS
VL: QAVVTQPPSVSAAPGQRVTISCSGSSSNIGKNYVSWYQHLPGTAPKLLIYESNKRPSGIPDRFSGSKSGTSATLGITGLQTGDEADYYCGTWDSSLSAGLFGGGTKVTVLG

For one assay, the target named is T1, genetically modified and chemically inactivated C. difficile toxoid A (Clostridium difficile, UniProt P16154 2-2710).
T1 construct: also called TxdA; the toxoid
The assay is described as follows: ITC. Background: ITC needs no label: the signal is the heat of the interaction.
As for B1, the “DH” value was -17.2 kcal/mol, binding was characterised by a dissociation constant (Kd) of 8 nM and the Stoichiometry was found to be 1.45.

The target in the next assay is C. difficile toxin A (Clostridium difficile, UniProt P16154 1-2710). The assay is described as follows: cell-based or functional assay.
For the molecule B2, the “EC50 TcdA [RLU], toxin neutralization assay (TNA) on IMR90 cells” value (shortened to “EC50 TcdA [RLU]”) is 4100 RLU. On the same count and under the same terms, with B1 the figure was 5760 RLU; with B3, 12700 RLU.

In the case of B4, the “EC50 TcdA [RLU]” value stood at 1420 RLU. Turning to B5, the “EC50 TcdA [RLU]” value turned out to be 1490 RLU.

Consider B6, for which the “EC50 TcdA [RLU]” value was 1450 RLU. For B7, the “EC50 TcdA [RLU]” value is 673 RLU. Still for that read-out and setting: as for B8, the figure is 1490 RLU; as for B9, 3210 RLU.

For the molecule B10, the “EC50 TcdA [RLU]” value worked out at 9 RLU. B11: the “EC50 TcdA [RLU]” value worked out at 305000 RLU. The same measure, in the same setting: with B12 the figure was 22800 RLU; with B13, 942000 RLU. For the molecule B14, the “EC50 TcdA [RLU]” value stood at 1640 RLU.

(Values after patent publication US20230218735A1 (Pfizer, published 2023).)
